Data taken from publication PMC9482650, “Quantitative fragmentomics allow affinity mapping of interactomes” (Nature Communications, 2022).

T1: FRMPD1, Q5SYB0
T1 sequence (Q5SYB0 52-145, limits assumed, looked up): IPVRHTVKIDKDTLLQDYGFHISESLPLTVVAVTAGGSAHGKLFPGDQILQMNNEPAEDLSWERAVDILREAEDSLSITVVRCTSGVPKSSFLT

T2: GRIP1_2, Q9Y3R0
T2 sequence (Q9Y3R0 145-248, limits assumed, looked up): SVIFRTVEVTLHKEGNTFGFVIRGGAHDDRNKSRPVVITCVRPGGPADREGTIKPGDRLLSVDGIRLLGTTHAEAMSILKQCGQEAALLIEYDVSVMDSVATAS

T3: GRIP1_3, Q9Y3R0
T3 sequence (Q9Y3R0 247-346, limits assumed, looked up): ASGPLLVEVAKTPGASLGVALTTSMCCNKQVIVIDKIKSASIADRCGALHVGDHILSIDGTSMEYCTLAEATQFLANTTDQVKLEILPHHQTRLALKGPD

T4: GRIP1_5, Q9Y3R0
T4 sequence (Q9Y3R0 568-668, limits assumed, looked up): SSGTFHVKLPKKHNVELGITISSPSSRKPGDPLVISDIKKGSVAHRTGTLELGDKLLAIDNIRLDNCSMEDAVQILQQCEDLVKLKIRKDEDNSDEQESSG

T5: LIN7A, O14910
T5 sequence (O14910 103-200, limits assumed, looked up): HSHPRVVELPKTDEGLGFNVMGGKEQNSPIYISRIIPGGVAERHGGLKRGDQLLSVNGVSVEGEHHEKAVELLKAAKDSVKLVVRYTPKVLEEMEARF

T6: PDZRN3_1, Q9UPQ7
T6 sequence (Q9UPQ7 244-349, limits assumed, looked up): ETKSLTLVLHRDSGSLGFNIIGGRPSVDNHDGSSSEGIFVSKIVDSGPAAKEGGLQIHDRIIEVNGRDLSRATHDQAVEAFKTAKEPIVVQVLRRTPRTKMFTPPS

T7: RADIL, Q96JH8
T7 sequence (Q96JH8 971-1071, limits assumed, looked up): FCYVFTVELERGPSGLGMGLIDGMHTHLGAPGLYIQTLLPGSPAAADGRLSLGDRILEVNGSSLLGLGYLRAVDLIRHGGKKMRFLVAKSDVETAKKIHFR

T8: RAPGEF6, Q8TEU7
T8 sequence (Q8TEU7 525-625, limits assumed, looked up): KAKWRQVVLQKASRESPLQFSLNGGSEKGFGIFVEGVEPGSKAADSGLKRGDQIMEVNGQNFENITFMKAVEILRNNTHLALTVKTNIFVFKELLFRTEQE

T9: RHPN1, Q8TCX5
T9 sequence (Q8TCX5 508-602, limits assumed, looked up): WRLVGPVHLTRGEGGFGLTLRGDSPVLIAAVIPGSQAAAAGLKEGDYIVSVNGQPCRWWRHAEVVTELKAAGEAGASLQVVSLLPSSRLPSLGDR

T10: TJP3_3, O95049
T10 sequence (O95049 375-456, limits assumed, looked up): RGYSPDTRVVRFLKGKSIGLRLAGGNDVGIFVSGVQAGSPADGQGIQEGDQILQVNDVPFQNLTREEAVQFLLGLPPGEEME


What was measured:
Test in all cases: holdup assay
Parameters in all cases: key: below the threshold = too weak to quantify, mostly under pKd 3.1 to 4
Details in all cases: plain residues with an end cap or a label only (N-terminal biotin on a linker: ado-ado)
DLG1_1, Q12959 = target: DLG1_1, Q12959
DLG4_3, P78352 = target: DLG4_3, P78352
DLG5_1, Q8TDM6 = target: DLG5_1, Q8TDM6
FRMPD1, Q5SYB0 = target: T1, FRMPD1, Q5SYB0
GOPC, Q9HD26 = target: GOPC, Q9HD26
GORASP1, Q9BQQ3 = target: GORASP1, Q9BQQ3
GORASP2, Q9H8Y8 = target: GORASP2, Q9H8Y8
GRIP1_2, Q9Y3R0 = target: T2, GRIP1_2, Q9Y3R0
GRIP1_3, Q9Y3R0 = target: T3, GRIP1_3, Q9Y3R0
GRIP1_5, Q9Y3R0 = target: T4, GRIP1_5, Q9Y3R0
HTRA1, Q92743 = target: HTRA1, Q92743
Inadl_10, Q8NI35 = target: Inadl_10, Q8NI35
LIN7A, O14910 = target: T5, LIN7A, O14910
LNX1_1, Q8TBB1 = target: LNX1_1, Q8TBB1
LNX1_3, Q8TBB1 = target: LNX1_3, Q8TBB1
MAGI1_1, Q96QZ7 = target: MAGI1_1, Q96QZ7
MAST2, Q6P0Q8 = target: MAST2, Q6P0Q8
NHERF4_2, Q86UT5 = target: NHERF4_2, Q86UT5
NHERF4_4, Q86UT5 = target: NHERF4_4, Q86UT5
PDLIM1, O00151 = target: PDLIM1, O00151
PDZRN3_1, Q9UPQ7 = target: T6, PDZRN3_1, Q9UPQ7
PDZRN4_1, Q6ZMN7 = target: PDZRN4_1, Q6ZMN7
RADIL, Q96JH8 = target: T7, RADIL, Q96JH8
RAPGEF6, Q8TEU7 = target: T8, RAPGEF6, Q8TEU7
RHPN1, Q8TCX5 = target: T9, RHPN1, Q8TCX5
SCRIB_1, Q14160 = target: SCRIB_1, Q14160
TJP2_1, Q9UDY2 = target: TJP2_1, Q9UDY2
TJP3_3, O95049 = target: T10, TJP3_3, O95049

LNX1_3, Q8TBB1, sequence (Q8TBB1 500-596): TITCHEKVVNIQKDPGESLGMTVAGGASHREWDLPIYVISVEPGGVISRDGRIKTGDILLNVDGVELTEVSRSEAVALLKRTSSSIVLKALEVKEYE
NHERF4_2, Q86UT5, sequence (Q86UT5 220-308): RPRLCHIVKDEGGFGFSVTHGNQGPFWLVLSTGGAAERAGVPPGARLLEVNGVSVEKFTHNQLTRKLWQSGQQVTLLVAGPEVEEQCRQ
TJP2_1, Q9UDY2, sequence (Q9UDY2 24-128): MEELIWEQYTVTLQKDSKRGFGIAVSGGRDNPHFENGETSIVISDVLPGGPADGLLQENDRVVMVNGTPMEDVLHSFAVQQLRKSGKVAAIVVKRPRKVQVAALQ
LNX1_1, Q8TBB1, sequence (Q8TBB1 261-371): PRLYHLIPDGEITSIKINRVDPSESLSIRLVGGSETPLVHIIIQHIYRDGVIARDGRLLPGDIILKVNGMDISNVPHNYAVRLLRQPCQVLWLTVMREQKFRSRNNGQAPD
DLG4_3, P78352, sequence (P78352 306-403): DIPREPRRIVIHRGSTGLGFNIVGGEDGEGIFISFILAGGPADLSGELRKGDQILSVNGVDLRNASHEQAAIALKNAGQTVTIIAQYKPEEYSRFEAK
PDLIM1, O00151, sequence (O00151 1-87): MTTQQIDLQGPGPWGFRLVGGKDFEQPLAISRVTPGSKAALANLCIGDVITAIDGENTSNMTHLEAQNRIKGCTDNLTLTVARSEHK
PDZRN4_1, Q6ZMN7, sequence (Q6ZMN7 213-318): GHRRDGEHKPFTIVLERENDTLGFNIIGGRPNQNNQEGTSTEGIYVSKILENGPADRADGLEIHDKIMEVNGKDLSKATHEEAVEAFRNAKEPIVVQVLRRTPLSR
Inadl_10, Q8NI35, sequence (Q8NI35 1673-1763): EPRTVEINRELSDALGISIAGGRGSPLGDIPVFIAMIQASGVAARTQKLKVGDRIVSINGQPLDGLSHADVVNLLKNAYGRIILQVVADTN
MAST2, Q6P0Q8, sequence (Q6P0Q8 1099-1202): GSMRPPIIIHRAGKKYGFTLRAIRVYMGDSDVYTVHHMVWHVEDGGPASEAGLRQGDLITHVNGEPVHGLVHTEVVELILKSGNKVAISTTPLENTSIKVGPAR
GORASP1, Q9BQQ3, sequence (Q9BQQ3 1-208): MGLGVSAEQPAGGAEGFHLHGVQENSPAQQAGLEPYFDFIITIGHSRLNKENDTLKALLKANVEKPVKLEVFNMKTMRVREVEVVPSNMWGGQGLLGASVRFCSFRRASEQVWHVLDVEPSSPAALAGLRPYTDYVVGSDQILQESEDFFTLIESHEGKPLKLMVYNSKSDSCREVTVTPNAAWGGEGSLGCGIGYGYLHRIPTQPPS
HTRA1, Q92743, sequence (Q92743 360-477): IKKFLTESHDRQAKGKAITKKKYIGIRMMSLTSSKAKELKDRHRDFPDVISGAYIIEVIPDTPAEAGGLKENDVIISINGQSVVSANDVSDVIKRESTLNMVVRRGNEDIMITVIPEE
DLG5_1, Q8TDM6, sequence (Q8TDM6 617-713): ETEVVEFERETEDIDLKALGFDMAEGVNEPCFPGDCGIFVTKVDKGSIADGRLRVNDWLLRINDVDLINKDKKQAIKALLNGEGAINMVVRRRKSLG
SCRIB_1, Q14160, sequence (Q14160 718-814): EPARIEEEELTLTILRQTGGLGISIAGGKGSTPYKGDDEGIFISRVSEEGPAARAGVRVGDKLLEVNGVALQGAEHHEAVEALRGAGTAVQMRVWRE
NHERF4_4, Q86UT5, sequence (Q86UT5 464-550): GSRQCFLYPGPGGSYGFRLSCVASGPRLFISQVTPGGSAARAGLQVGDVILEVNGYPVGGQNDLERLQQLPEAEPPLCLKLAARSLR
MAGI1_1, Q96QZ7, sequence (Q96QZ7 1-106): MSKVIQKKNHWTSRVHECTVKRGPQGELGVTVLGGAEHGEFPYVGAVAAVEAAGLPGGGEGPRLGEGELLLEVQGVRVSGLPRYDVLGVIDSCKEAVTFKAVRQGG

| pKd (DLG1_1, Q12959) | pKd (DLG4_3, P78352) | pKd (DLG5_1, Q8TDM6) | pKd (FRMPD1, Q5SYB0) | pKd (GOPC, Q9HD26) | pKd (GORASP1, Q9BQQ3) | pKd (GORASP2, Q9H8Y8) | pKd (GRIP1_2, Q9Y3R0) | pKd (GRIP1_3, Q9Y3R0) | pKd (GRIP1_5, Q9Y3R0) | pKd (HTRA1, Q92743) | pKd (Inadl_10, Q8NI35) | pKd (LIN7A, O14910) | pKd (LNX1_1, Q8TBB1) | pKd (LNX1_3, Q8TBB1) | pKd (MAGI1_1, Q96QZ7) | pKd (MAST2, Q6P0Q8) | pKd (NHERF4_2, Q86UT5) | pKd (NHERF4_4, Q86UT5) | pKd (PDLIM1, O00151) | also measured | Binder |
| --- | --- | --- | --- | --- | --- | --- | --- | --- | --- | --- | --- | --- | --- | --- | --- | --- | --- | --- | --- | --- | --- |
| 4.42 | 4.17 | below the threshold | below the threshold | 4.47 | below the threshold | 3.57 | below the threshold | below the threshold | below the threshold | below the threshold | below the threshold | 3.51 | 3.99 | below the threshold | 3.59 | 5.52 | below the threshold | 3.95 | below the threshold | pKd (PDZRN3_1, Q9UPQ7): 4.4; pKd (PDZRN4_1, Q6ZMN7): 4.6; pKd (RADIL, Q96JH8): below the threshold; pKd (RAPGEF6, Q8TEU7): below the threshold; pKd (RHPN1, Q8TCX5): 4.84; pKd (SCRIB_1, Q14160): 5.19; pKd (TJP2_1, Q9UDY2): below the threshold; pKd (TJP3_3, O95049): below the threshold | TKDKVQETQI [LRRC4, Q9HBW1] |
| below the threshold | below the threshold | below the threshold | below the threshold | below the threshold | 3.7 | 4.31 | below the threshold | below the threshold | below the threshold | 4.03 | below the threshold | below the threshold | below the threshold | below the threshold | below the threshold | below the threshold | below the threshold | below the threshold | below the threshold | pKd (PDZRN3_1, Q9UPQ7): below the threshold; pKd (PDZRN4_1, Q6ZMN7): below the threshold; pKd (RADIL, Q96JH8): 3.65; pKd (RAPGEF6, Q8TEU7): below the threshold; pKd (RHPN1, Q8TCX5): below the threshold; pKd (SCRIB_1, Q14160): below the threshold; pKd (TJP2_1, Q9UDY2): below the threshold; pKd (TJP3_3, O95049): below the threshold | MLPANYVEAI [NEB, P20929] |
| 3.91 | below the threshold | below the threshold | below the threshold | 4.88 | 4 | 4.05 | below the threshold | below the threshold | below the threshold | 5.79 | 4.42 | below the threshold | 4.48 | below the threshold | 3.51 | 5.76 | below the threshold | 3.73 | below the threshold | pKd (PDZRN3_1, Q9UPQ7): below the threshold; pKd (PDZRN4_1, Q6ZMN7): 3.72; pKd (RADIL, Q96JH8): 4.62; pKd (RAPGEF6, Q8TEU7): 3.65; pKd (RHPN1, Q8TCX5): 5.05; pKd (SCRIB_1, Q14160): 4.89; pKd (TJP2_1, Q9UDY2): below the threshold; pKd (TJP3_3, O95049): below the threshold | ADEMICITTL [CACNA1D, Q01668] |
| below the threshold | below the threshold | below the threshold | below the threshold | below the threshold | below the threshold | below the threshold | below the threshold | below the threshold | below the threshold | 4.16 | below the threshold | below the threshold | below the threshold | below the threshold | below the threshold | 4.08 | below the threshold | 3.78 | below the threshold | pKd (PDZRN3_1, Q9UPQ7): below the threshold; pKd (PDZRN4_1, Q6ZMN7): below the threshold; pKd (RADIL, Q96JH8): below the threshold; pKd (RAPGEF6, Q8TEU7): below the threshold; pKd (RHPN1, Q8TCX5): below the threshold; pKd (SCRIB_1, Q14160): below the threshold; pKd (TJP2_1, Q9UDY2): below the threshold; pKd (TJP3_3, O95049): below the threshold | LVEEEEPMNL [HDAC7, Q8WUI4] |
